# B1: Hairpin Ribozyme (parent)
# chain: GUCCUCUUUCACGUGCGCGUGAAAGAGAGAAGUGAACCAGAGAAACACACGUUGUGGUAUAUUACCUGGUA
# Variants of: B1
# Test: self-cleavage, relative activity (ratio to wild type); higher = more cleavage; co-transcriptional
row,Variant,self-cleavage
1,G29U C50A,0.113
2,C10A A36G,0.856
3,G40U A64U,0.1
4,G25C U33A,0.0816
5,G51C C65U,0.296
6,A35C U63G,0.286
7,A41C U52G,0.654
8,G15U G32C,0.122
9,U5A G17C,0.204
10,A28U G42A,0.167
11,C18U A71C,1.33
12,A64G U70A,0.597
13,A49G C50A,0.249
14,A11C G32A,0.179
15,A31U G57U,0.216
16,G19U G32U,0.118
17,C10U G54A,0.561
18,A44G U58C,0.0672
19,C10G A39G,0.267
20,C12U C48U,0.126
21,G27C A43U,0.151
22,C18G U55G,0.311
23,U2A C6U,0.182
24,G17A G54A,0.543

row,Variant,self-cleavage
1,A47C U53C,0.192
2,C10G A47C,0.307
3,C4G C65A,0.206
4,A22U A64U,0.14
5,G25A C38A,0.173
6,A31G G40A,0.179
7,U33A G56U,0.156
8,A24U U60G,0.531
9,U53G U55G,0.327
10,U5G C50U,0.147
11,A49U G57A,0.192
12,G21C C38A,0.18
13,C16G A47G,0.187
14,G1A U52C,0.181
15,G34U A45C,0.213
16,C38U U52C,0.598
17,U8A A44G,0.173
18,C46G U62A,0.148
19,G27U U60C,0.383
20,U20C U55C,0.159
21,A49C C65A,0.225
22,U60A U62G,0.0972
23,C38A U52C,0.193
24,C4G G68U,0.0845

row,Variant,self-cleavage
1,C38A G57U,0.0968
2,G25A A49C,0.232
3,C38A C66G,0.114
4,U9A G57C,0.185
5,G51C U63C,0.1
6,A45C A71G,0.154
7,U7G G69C,0.191
8,U14C A36U,0.844
9,U67C G68C,0.178
10,U63G U70C,0.161
11,G25U A61G,0.178
12,A43C C66U,0.181
13,C10U A47G,0.169
14,C46G C48A,0.204
15,C38U U67G,0.204
16,A30U G51A,0.104
17,U7G C12A,0.732
18,C18A C66U,0.594
19,U2G A31G,0.281
20,C3G G32C,0.0586
21,G1U A71U,0.167
22,A22C G68U,0.262
23,A31G A45C,0.241
24,G40A C48A,0.246

row,Variant,self-cleavage
1,G57C A64U,0.095
2,G56U U58C,0.0906
3,A23C U67G,0.27
4,A45C U52G,0.0239
5,A22G A49U,0.126
6,G13U U14C,0.544
7,U9A G34C,1.08
8,C4U A59C,0.126
9,G15A A59U,0.213
10,U7C A39C,0.583
11,U7A U55A,0.152
12,C3G C4G,0.244
13,G42U C66A,0.162
14,A31G A45U,0.236
15,A35U A45C,0.112
16,G34U A41U,1.53
17,G29C G56A,0.0331
18,A24G G34U,0.956
19,G40A,0.329
20,C6G A35U,0.464
21,C6U G40A,0.344
22,C18A A30C,0.166
23,A24U A47U,0.144
24,A30G G68U,0.169

row,Variant,self-cleavage
1,U9A A30G,0.148
2,G15A U55C,0.225
3,U20A A41C,1.28
4,G1U C66U,0.0959
5,G21U A61C,0.237
6,U9A U60A,0.483
7,A61G A64C,0.109
8,A26G A45U,0.148
9,G42A A64U,0.107
10,A24G U58C,0.804
11,A24C G29A,0.0206
12,U2C A30G,0.349
13,C4U A30G,0.128
14,A23C U58G,0.674
15,G40C G56C,0.122
16,A11G A36C,0.508
17,A26C U53G,0.883
18,G32U G57C,0.129
19,U7C G25A,0.306
20,U5C U62G,0.159
21,G34C A35G,1.4
22,G15C G29C,0.116
23,A11U G15C,0.85
24,U58G,0.788

row,Variant,self-cleavage
1,A22G U53A,0.926
2,G29U U33G,0.0639
3,U2G C4U,0.15
4,A31C A71G,0.212
5,G13U G32A,0.183
6,C18U A59C,0.237
7,C16G C50U,0.306
8,G21C U67G,0.246
9,C48A C65U,0.189
10,U20A C48G,0.219
11,U67C A71C,0.359
12,U9G G57C,0.232
13,C12U G42C,0.265
14,A22G A41C,1.01
15,C12G A30C,0.0578
16,C18U C66G,0.202
17,A22C C46A,0.183
18,A39G G51U,0.36
19,G40A U53G,0.169
20,U55C G57A,0.11
21,G13C U62A,0.143
22,U14A G27C,0.196
23,U14G G29A,0.0483
24,A23G C50U,0.43

row,Variant,self-cleavage
1,G15C A61G,0.173
2,U8G G13A,0.618
3,C16U C66A,0.194
4,U7C A64U,0.0591
5,U8C A45C,0.065
6,A23C U70C,1.06
7,A31G G56C,0.164
8,A44C A64C,0.0397
9,G25A G34C,1.34
10,A11C G13U,0.717
11,U9A U52C,0.6
12,A43C U62C,0.129
13,G40C U60A,0.0252
14,C37A A39C,0.128
15,C10G C38U,0.435
16,A45G C66G,0.122
17,G32U A61G,0.0951
18,C4A C16G,0.236
19,U8C C18U,0.779
20,A26C G56C,0.0943
21,U7G G57U,0.175
22,G54U C65U,0.171
23,A26C A28U,0.291

# — the RNAGym collection of RNA variant scans (doi:10.7554/elife.80360)
